Target: T1, RBD mouse Fc-tagged antigen (Sino Biological, Cat. No. 40592-V05H) (SARS-CoV-2, UniProt P0DTC2)
T1 construct: source: bought: Sino Biological
Test: ELISA
Details: both partners purified

B1: S304 IgG (antibody, V domains shown)
VH: EVQLVESGGGLVQPGGSLRLSCAASGFTFSSYDMHWVRQTTGKGLEWVSTIGTAGDTYYPDSVKGRFTISREDAKNSLYLQMNSLRAGDTAVYYCARGDSSGYYYYFDYWGQGTLLTVSS
VL: DIQMTQSPSSLSAAVGDRVTITCRASQSIGSYLNWYQQKPGKAPKLLIYAASSLQSGVPSRFSGSGSGTDFTLTISSLQPEDFAIYYCQQSYVSPTYTFGPGTKVDIK
notes: copies: 2 + 2
- binding result: binds
